T1: APBA1_2, Q02410
T1 sequence (Q02410 742-832, limits assumed, looked up): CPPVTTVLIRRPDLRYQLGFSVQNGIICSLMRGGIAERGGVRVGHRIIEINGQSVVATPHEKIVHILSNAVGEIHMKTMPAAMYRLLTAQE

T2: DLG3_3, Q92796
T2 sequence (Q92796 374-475, limits assumed, looked up): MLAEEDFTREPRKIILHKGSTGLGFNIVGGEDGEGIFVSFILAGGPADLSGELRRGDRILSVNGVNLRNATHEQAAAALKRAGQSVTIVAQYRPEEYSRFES

T3: HTRA3, P83110
T3 sequence (P83110 354-453, limits assumed, looked up): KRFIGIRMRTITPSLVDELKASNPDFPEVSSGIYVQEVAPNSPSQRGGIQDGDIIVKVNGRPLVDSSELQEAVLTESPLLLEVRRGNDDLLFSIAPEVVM

T4: LIN7B, Q9HAP6
T4 sequence (Q9HAP6 88-185, limits assumed, looked up): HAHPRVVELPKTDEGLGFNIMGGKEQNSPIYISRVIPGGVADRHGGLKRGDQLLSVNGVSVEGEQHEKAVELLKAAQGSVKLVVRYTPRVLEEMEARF

T5: LIN7C, Q9NUP9
T5 sequence (Q9NUP9 88-185, limits assumed, looked up): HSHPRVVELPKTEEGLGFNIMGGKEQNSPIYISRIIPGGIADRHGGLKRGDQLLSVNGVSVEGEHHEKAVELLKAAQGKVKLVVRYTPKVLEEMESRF

T6: NHERF3_3, Q5T2W1
T6 sequence (Q5T2W1 238-333, limits assumed, looked up): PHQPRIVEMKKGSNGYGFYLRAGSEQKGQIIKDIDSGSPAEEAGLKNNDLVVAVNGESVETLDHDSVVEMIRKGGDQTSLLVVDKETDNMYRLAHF

T7: RHPN1, Q8TCX5
T7 sequence (Q8TCX5 508-602, limits assumed, looked up): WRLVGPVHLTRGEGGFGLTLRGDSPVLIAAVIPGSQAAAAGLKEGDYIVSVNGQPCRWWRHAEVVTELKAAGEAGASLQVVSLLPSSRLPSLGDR

T8: SNTA1, Q13424
T8 sequence (Q13424 82-180, limits assumed, looked up): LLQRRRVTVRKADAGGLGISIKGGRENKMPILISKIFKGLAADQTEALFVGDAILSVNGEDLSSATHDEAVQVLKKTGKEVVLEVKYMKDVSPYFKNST


What was measured:
Assay in all cases: holdup assay
Parameters in all cases: key: below the threshold = too weak to quantify, mostly under pKd 3.1 to 4
Details in all cases: plain residues with an end cap or a label only (N-terminal biotin on a linker: ado-ado)
APBA1_2, Q02410 = target: T1, APBA1_2, Q02410
ARHGEF12, Q9NZN5-2 = target: ARHGEF12, Q9NZN5-2
Sequence of ARHGEF12, Q9NZN5-2 (Q9NZN5 other isoform, or with tags, fused parts or gaps): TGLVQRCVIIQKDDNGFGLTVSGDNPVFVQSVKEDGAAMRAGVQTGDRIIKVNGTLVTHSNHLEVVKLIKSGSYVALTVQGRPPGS

DLG1_1, Q12959 = target: DLG1_1, Q12959
DLG2_2, Q15700 = target: DLG2_2, Q15700
Sequence of DLG2_2, Q15700 (Q15700 189-283): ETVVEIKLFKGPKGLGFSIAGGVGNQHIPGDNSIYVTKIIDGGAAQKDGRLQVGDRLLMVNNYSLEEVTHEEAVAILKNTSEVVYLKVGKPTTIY

DLG3_3, Q92796 = target: T2, DLG3_3, Q92796
DLG4_3, P78352 = target: DLG4_3, P78352
Sequence of DLG4_3, P78352 (P78352 306-403): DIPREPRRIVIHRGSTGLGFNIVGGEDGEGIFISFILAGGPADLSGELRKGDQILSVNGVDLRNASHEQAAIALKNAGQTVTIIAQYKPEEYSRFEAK

FRMPD2_1, Q68DX3 = target: FRMPD2_1, Q68DX3
Sequence of FRMPD2_1, Q68DX3 (Q68DX3 770-861): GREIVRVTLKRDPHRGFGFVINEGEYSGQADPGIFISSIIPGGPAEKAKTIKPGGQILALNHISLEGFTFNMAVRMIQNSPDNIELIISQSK

FRMPD2_2, Q68DX3 = target: FRMPD2_2, Q68DX3
Sequence of FRMPD2_2, Q68DX3 (Q68DX3 944-1038): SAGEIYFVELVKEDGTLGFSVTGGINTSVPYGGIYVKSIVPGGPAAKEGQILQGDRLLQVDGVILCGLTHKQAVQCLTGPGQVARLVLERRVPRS

FRMPD3, Q5JV73 = target: FRMPD3, Q5JV73
Sequence of FRMPD3, Q5JV73 (Q5JV73 12-100): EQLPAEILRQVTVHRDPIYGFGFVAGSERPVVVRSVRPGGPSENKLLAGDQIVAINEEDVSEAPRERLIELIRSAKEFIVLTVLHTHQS

GOPC, Q9HD26 = target: GOPC, Q9HD26
GORASP1, Q9BQQ3 = target: GORASP1, Q9BQQ3
Sequence of GORASP1, Q9BQQ3 (Q9BQQ3 1-208): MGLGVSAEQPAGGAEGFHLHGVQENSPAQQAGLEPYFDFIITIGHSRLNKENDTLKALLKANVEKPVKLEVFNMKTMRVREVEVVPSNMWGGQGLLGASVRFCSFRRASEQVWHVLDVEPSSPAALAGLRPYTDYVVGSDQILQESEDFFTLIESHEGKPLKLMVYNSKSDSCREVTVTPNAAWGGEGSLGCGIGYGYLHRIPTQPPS

GRIP2_3, Q9C0E4 = target: GRIP2_3, Q9C0E4
Sequence of GRIP2_3, Q9C0E4 (Q9C0E4 238-339): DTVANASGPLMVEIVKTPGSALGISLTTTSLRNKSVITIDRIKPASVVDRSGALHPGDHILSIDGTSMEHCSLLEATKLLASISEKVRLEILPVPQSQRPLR

HTRA3, P83110 = target: T3, HTRA3, P83110
Inadl_1, Q8NI35 = target: Inadl_1, Q8NI35
Sequence of Inadl_1, Q8NI35 (Q8NI35 113-229): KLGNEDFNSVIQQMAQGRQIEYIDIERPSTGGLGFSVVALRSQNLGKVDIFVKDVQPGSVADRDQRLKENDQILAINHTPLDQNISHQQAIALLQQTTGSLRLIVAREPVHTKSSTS

Inadl_10, Q8NI35 = target: Inadl_10, Q8NI35
Sequence of Inadl_10, Q8NI35 (Q8NI35 1673-1763): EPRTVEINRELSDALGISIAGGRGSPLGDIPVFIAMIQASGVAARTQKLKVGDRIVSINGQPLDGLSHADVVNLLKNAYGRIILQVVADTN

Inadl_4, Q8NI35 = target: Inadl_4, Q8NI35
Sequence of Inadl_4, Q8NI35 (Q8NI35 547-651): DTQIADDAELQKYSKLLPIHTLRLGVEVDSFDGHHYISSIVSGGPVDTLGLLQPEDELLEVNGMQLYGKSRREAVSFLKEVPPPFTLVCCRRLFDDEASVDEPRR

Inadl_6, Q8NI35 = target: Inadl_6, Q8NI35
Sequence of Inadl_6, Q8NI35 (Q8NI35 1058-1167): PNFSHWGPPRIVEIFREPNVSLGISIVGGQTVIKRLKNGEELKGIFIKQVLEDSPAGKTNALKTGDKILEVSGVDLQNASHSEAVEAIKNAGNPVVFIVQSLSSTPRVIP

Inadl_8, Q8NI35 = target: Inadl_8, Q8NI35
Sequence of Inadl_8, Q8NI35 (Q8NI35 1425-1530): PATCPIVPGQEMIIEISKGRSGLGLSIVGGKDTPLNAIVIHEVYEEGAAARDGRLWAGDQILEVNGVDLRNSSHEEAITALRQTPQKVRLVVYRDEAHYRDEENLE

LIN7B, Q9HAP6 = target: T4, LIN7B, Q9HAP6
LIN7C, Q9NUP9 = target: T5, LIN7C, Q9NUP9
LNX1_2, Q8TBB1 = target: LNX1_2, Q8TBB1
Sequence of LNX1_2, Q8TBB1 (Q8TBB1 371-470): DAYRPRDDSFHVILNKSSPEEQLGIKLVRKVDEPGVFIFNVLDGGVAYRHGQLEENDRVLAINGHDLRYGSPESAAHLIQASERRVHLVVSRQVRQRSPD

LNX1_3, Q8TBB1 = target: LNX1_3, Q8TBB1
Sequence of LNX1_3, Q8TBB1 (Q8TBB1 500-596): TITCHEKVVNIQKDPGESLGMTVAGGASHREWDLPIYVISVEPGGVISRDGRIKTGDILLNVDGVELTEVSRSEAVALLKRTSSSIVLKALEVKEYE

MAGI1_2, Q96QZ7 = target: MAGI1_2, Q96QZ7
Sequence of MAGI1_2, Q96QZ7 (Q96QZ7 456-580): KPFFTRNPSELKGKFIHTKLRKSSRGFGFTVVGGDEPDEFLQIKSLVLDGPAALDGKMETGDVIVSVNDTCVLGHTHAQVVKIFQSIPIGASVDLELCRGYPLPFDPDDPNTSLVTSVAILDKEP

MAGI2_3, Q86UL8 = target: MAGI2_3, Q86UL8
Sequence of MAGI2_3, Q86UL8 (Q86UL8 600-682): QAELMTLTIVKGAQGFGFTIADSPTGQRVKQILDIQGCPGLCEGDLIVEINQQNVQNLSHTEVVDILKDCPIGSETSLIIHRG

MAGI3_2, Q5TCQ9 = target: MAGI3_2, Q5TCQ9
Sequence of MAGI3_2, Q5TCQ9 (Q5TCQ9 398-503): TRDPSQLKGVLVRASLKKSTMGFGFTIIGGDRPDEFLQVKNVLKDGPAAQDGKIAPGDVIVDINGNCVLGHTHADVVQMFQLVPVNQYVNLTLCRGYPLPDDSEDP

MAST2, Q6P0Q8 = target: MAST2, Q6P0Q8
Sequence of MAST2, Q6P0Q8 (Q6P0Q8 1099-1202): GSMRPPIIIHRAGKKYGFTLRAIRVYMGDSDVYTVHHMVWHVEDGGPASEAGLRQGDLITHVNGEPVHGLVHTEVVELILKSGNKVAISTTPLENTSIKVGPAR

NHERF3_3, Q5T2W1 = target: T6, NHERF3_3, Q5T2W1
NHERF4_4, Q86UT5 = target: NHERF4_4, Q86UT5
Sequence of NHERF4_4, Q86UT5 (Q86UT5 464-550): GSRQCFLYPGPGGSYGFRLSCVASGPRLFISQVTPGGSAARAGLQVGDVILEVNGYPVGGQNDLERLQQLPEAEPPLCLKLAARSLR

PARD3_3, Q8TEW0 = target: PARD3_3, Q8TEW0
Sequence of PARD3_3, Q8TEW0 (Q8TEW0 582-685): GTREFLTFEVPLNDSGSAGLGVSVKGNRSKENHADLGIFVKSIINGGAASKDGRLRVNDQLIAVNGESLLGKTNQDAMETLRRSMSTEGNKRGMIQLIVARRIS

RHPN1, Q8TCX5 = target: T7, RHPN1, Q8TCX5
SNTA1, Q13424 = target: T8, SNTA1, Q13424

Binder | pKd (APBA1_2, Q02410) | pKd (ARHGEF12, Q9NZN5-2) | pKd (DLG1_1, Q12959) | pKd (DLG2_2, Q15700) | pKd (DLG3_3, Q92796) | pKd (DLG4_3, P78352) | pKd (FRMPD2_1, Q68DX3) | pKd (FRMPD2_2, Q68DX3) | pKd (FRMPD3, Q5JV73) | pKd (GOPC, Q9HD26) | pKd (GORASP1, Q9BQQ3) | pKd (GRIP2_3, Q9C0E4) | pKd (HTRA3, P83110) | pKd (Inadl_1, Q8NI35) | pKd (Inadl_10, Q8NI35) | pKd (Inadl_4, Q8NI35) | pKd (Inadl_6, Q8NI35) | pKd (Inadl_8, Q8NI35) | pKd (LIN7C, Q9NUP9) | pKd (LNX1_2, Q8TBB1) | further results
PAALPESTHM [SLC9A3, P48764] | below the threshold | below the threshold | below the threshold | below the threshold | below the threshold | below the threshold | below the threshold | below the threshold | below the threshold | below the threshold | below the threshold | below the threshold | below the threshold | below the threshold | below the threshold | below the threshold | below the threshold | below the threshold | below the threshold | below the threshold | pKd (LIN7B, Q9HAP6): below the threshold; pKd (LNX1_3, Q8TBB1): below the threshold; pKd (MAGI1_2, Q96QZ7): below the threshold; pKd (MAGI2_3, Q86UL8): below the threshold; pKd (MAGI3_2, Q5TCQ9): below the threshold; pKd (MAST2, Q6P0Q8): 5.35; pKd (NHERF3_3, Q5T2W1): below the threshold; pKd (NHERF4_4, Q86UT5): below the threshold; pKd (PARD3_3, Q8TEW0): below the threshold; pKd (RHPN1, Q8TCX5): below the threshold; pKd (SNTA1, Q13424): below the threshold
VKQYADVEGF [HNRNPK, P61978;P61978-2] | below the threshold | below the threshold | below the threshold | below the threshold | below the threshold | below the threshold | below the threshold | below the threshold | below the threshold | below the threshold | below the threshold | below the threshold | below the threshold | below the threshold | below the threshold | below the threshold | below the threshold | below the threshold | 4.03 | below the threshold | pKd (LNX1_3, Q8TBB1): below the threshold; pKd (MAGI1_2, Q96QZ7): below the threshold; pKd (MAGI2_3, Q86UL8): below the threshold; pKd (MAGI3_2, Q5TCQ9): below the threshold; pKd (NHERF3_3, Q5T2W1): below the threshold; pKd (PARD3_3, Q8TEW0): below the threshold; pKd (RHPN1, Q8TCX5): below the threshold; pKd (SNTA1, Q13424): below the threshold
NTALVESEDL [PALLS, Q8WX93;Q8WX93-1] | below the threshold | below the threshold | below the threshold | below the threshold | below the threshold | below the threshold | below the threshold | below the threshold | below the threshold | below the threshold | below the threshold | below the threshold | below the threshold | below the threshold | below the threshold | below the threshold | below the threshold | below the threshold | below the threshold | below the threshold | pKd (LIN7B, Q9HAP6): below the threshold; pKd (LNX1_3, Q8TBB1): below the threshold; pKd (MAGI1_2, Q96QZ7): below the threshold; pKd (MAGI2_3, Q86UL8): below the threshold; pKd (MAGI3_2, Q5TCQ9): below the threshold; pKd (MAST2, Q6P0Q8): 5.15; pKd (NHERF3_3, Q5T2W1): below the threshold; pKd (NHERF4_4, Q86UT5): below the threshold; pKd (RHPN1, Q8TCX5): below the threshold; pKd (SNTA1, Q13424): below the threshold
